Test results from paper PMC6750108, “Crystal Structure of 4-Hydroxyphenylpyruvate Dioxygenase in Complex with Substrate Reveals a New Starting Point for Herbicide Discovery” (Research, 2019).

B1: AtHPPD (Arabidopsis thaliana; Q293A) (protein)
chain: MGHQNAAVSENQNHDDGAASSPGFKLVGFSKFVRKNPKSDKFKVKRFHHIEFWCGDATNVARRFSWGLGMRFSAKSDLSTGNMVHASYLLTSGDLRFLFTAPYSPSLSAGEIKPTTTASIPSFDHGSCRSFFSSHGLGVRAVAIEVEDAESAFSISVANGAIPSSPPIVLNEAVTIAEVKLYGDVVLRYVSYKAEDTEKSEFLPGFERVEDASSFPLDYGIRRLDHAVGNVPELGPALTYVAGFTGFHQFAEFTADDVGTAESGLNSAVLASNDEMVLLPINEPVHGTKRKSAIQTYLEHNEGAGLQHLALMSEDIFRTLREMRKRSSIGGFDFMPSPPPTYYQNLKKRVGDVLSDDQIKECEELGILVDRDDQGTLLQIFTKPLGDRPTIFIEIIQRVGCMMKDEEGKAYQSGGCGGFGKGNFSELFKSIEEYEKTLEAKQLVG
notes: full-length, N-terminal His tag (pET15b), E. coli BL21 (DE3); Ni-NTA, ion exchange, size exclusion; homodimers in crystal
B2: AtHPPD (Arabidopsis thaliana; S267A) (protein)
chain: MGHQNAAVSENQNHDDGAASSPGFKLVGFSKFVRKNPKSDKFKVKRFHHIEFWCGDATNVARRFSWGLGMRFSAKSDLSTGNMVHASYLLTSGDLRFLFTAPYSPSLSAGEIKPTTTASIPSFDHGSCRSFFSSHGLGVRAVAIEVEDAESAFSISVANGAIPSSPPIVLNEAVTIAEVKLYGDVVLRYVSYKAEDTEKSEFLPGFERVEDASSFPLDYGIRRLDHAVGNVPELGPALTYVAGFTGFHQFAEFTADDVGTAESGLNAAVLASNDEMVLLPINEPVHGTKRKSQIQTYLEHNEGAGLQHLALMSEDIFRTLREMRKRSSIGGFDFMPSPPPTYYQNLKKRVGDVLSDDQIKECEELGILVDRDDQGTLLQIFTKPLGDRPTIFIEIIQRVGCMMKDEEGKAYQSGGCGGFGKGNFSELFKSIEEYEKTLEAKQLVG
notes: as for B1
B3: AtHPPD (Arabidopsis thaliana; N282A) (protein)
chain: MGHQNAAVSENQNHDDGAASSPGFKLVGFSKFVRKNPKSDKFKVKRFHHIEFWCGDATNVARRFSWGLGMRFSAKSDLSTGNMVHASYLLTSGDLRFLFTAPYSPSLSAGEIKPTTTASIPSFDHGSCRSFFSSHGLGVRAVAIEVEDAESAFSISVANGAIPSSPPIVLNEAVTIAEVKLYGDVVLRYVSYKAEDTEKSEFLPGFERVEDASSFPLDYGIRRLDHAVGNVPELGPALTYVAGFTGFHQFAEFTADDVGTAESGLNSAVLASNDEMVLLPIAEPVHGTKRKSQIQTYLEHNEGAGLQHLALMSEDIFRTLREMRKRSSIGGFDFMPSPPPTYYQNLKKRVGDVLSDDQIKECEELGILVDRDDQGTLLQIFTKPLGDRPTIFIEIIQRVGCMMKDEEGKAYQSGGCGGFGKGNFSELFKSIEEYEKTLEAKQLVG
notes: as for B1
B4: AtHPPD (Arabidopsis thaliana; F381A) (protein)
chain: MGHQNAAVSENQNHDDGAASSPGFKLVGFSKFVRKNPKSDKFKVKRFHHIEFWCGDATNVARRFSWGLGMRFSAKSDLSTGNMVHASYLLTSGDLRFLFTAPYSPSLSAGEIKPTTTASIPSFDHGSCRSFFSSHGLGVRAVAIEVEDAESAFSISVANGAIPSSPPIVLNEAVTIAEVKLYGDVVLRYVSYKAEDTEKSEFLPGFERVEDASSFPLDYGIRRLDHAVGNVPELGPALTYVAGFTGFHQFAEFTADDVGTAESGLNSAVLASNDEMVLLPINEPVHGTKRKSQIQTYLEHNEGAGLQHLALMSEDIFRTLREMRKRSSIGGFDFMPSPPPTYYQNLKKRVGDVLSDDQIKECEELGILVDRDDQGTLLQIATKPLGDRPTIFIEIIQRVGCMMKDEEGKAYQSGGCGGFGKGNFSELFKSIEEYEKTLEAKQLVG
notes: as for B1
B5: AtHPPD (Arabidopsis thaliana; N423A) (protein)
chain: MGHQNAAVSENQNHDDGAASSPGFKLVGFSKFVRKNPKSDKFKVKRFHHIEFWCGDATNVARRFSWGLGMRFSAKSDLSTGNMVHASYLLTSGDLRFLFTAPYSPSLSAGEIKPTTTASIPSFDHGSCRSFFSSHGLGVRAVAIEVEDAESAFSISVANGAIPSSPPIVLNEAVTIAEVKLYGDVVLRYVSYKAEDTEKSEFLPGFERVEDASSFPLDYGIRRLDHAVGNVPELGPALTYVAGFTGFHQFAEFTADDVGTAESGLNSAVLASNDEMVLLPINEPVHGTKRKSQIQTYLEHNEGAGLQHLALMSEDIFRTLREMRKRSSIGGFDFMPSPPPTYYQNLKKRVGDVLSDDQIKECEELGILVDRDDQGTLLQIFTKPLGDRPTIFIEIIQRVGCMMKDEEGKAYQSGGCGGFGKGAFSELFKSIEEYEKTLEAKQLVG
notes: as for B1
B6: AtHPPD (Arabidopsis thaliana; Q307A) (protein)
chain: MGHQNAAVSENQNHDDGAASSPGFKLVGFSKFVRKNPKSDKFKVKRFHHIEFWCGDATNVARRFSWGLGMRFSAKSDLSTGNMVHASYLLTSGDLRFLFTAPYSPSLSAGEIKPTTTASIPSFDHGSCRSFFSSHGLGVRAVAIEVEDAESAFSISVANGAIPSSPPIVLNEAVTIAEVKLYGDVVLRYVSYKAEDTEKSEFLPGFERVEDASSFPLDYGIRRLDHAVGNVPELGPALTYVAGFTGFHQFAEFTADDVGTAESGLNSAVLASNDEMVLLPINEPVHGTKRKSQIQTYLEHNEGAGLAHLALMSEDIFRTLREMRKRSSIGGFDFMPSPPPTYYQNLKKRVGDVLSDDQIKECEELGILVDRDDQGTLLQIFTKPLGDRPTIFIEIIQRVGCMMKDEEGKAYQSGGCGGFGKGNFSELFKSIEEYEKTLEAKQLVG
notes: as for B1
B7: AtHPPD (Arabidopsis thaliana) (protein)
chain: MGHQNAAVSENQNHDDGAASSPGFKLVGFSKFVRKNPKSDKFKVKRFHHIEFWCGDATNVARRFSWGLGMRFSAKSDLSTGNMVHASYLLTSGDLRFLFTAPYSPSLSAGEIKPTTTASIPSFDHGSCRSFFSSHGLGVRAVAIEVEDAESAFSISVANGAIPSSPPIVLNEAVTIAEVKLYGDVVLRYVSYKAEDTEKSEFLPGFERVEDASSFPLDYGIRRLDHAVGNVPELGPALTYVAGFTGFHQFAEFTADDVGTAESGLNSAVLASNDEMVLLPINEPVHGTKRKSQIQTYLEHNEGAGLQHLALMSEDIFRTLREMRKRSSIGGFDFMPSPPPTYYQNLKKRVGDVLSDDQIKECEELGILVDRDDQGTLLQIFTKPLGDRPTIFIEIIQRVGCMMKDEEGKAYQSGGCGGFGKGNFSELFKSIEEYEKTLEAKQLVG
notes: as for B1

What follows are proteins tested on O=C(O)C(=O)Cc1ccc(O)cc1 (assay: purified protein). Details: apparent, air-saturated 20 mM HEPES pH 7.0, 25 °C, 0.1 mM FeSO4, 2 mM ascorbate.
Assay type: biochemical, Arabidopsis thaliana
For B1, the Km was 90.41 ± 11.33 µM, the kcat was 0.014 ± 0.001 s⁻¹ and the kcat/Km was 150 M⁻¹ s⁻¹. Protein B2 has a Km of 5.33 ± 1.59 µM, a kcat of 0.249 ± 0.025 s⁻¹ and a kcat/Km of 46700 M⁻¹ s⁻¹. B3 showed a Km of 10.83 ± 2.33 µM, a kcat of 0.039 ± 0.003 s⁻¹ and a kcat/Km of 3600 M⁻¹ s⁻¹. Protein B4 has a Km of 9.10 ± 0.94 µM, a kcat of 0.924 ± 0.032 s⁻¹ and a kcat/Km of 102000 M⁻¹ s⁻¹. With B5 the Km was 15.66 ± 4.29 µM, the kcat was 0.545 ± 0.061 s⁻¹ and the kcat/Km was 34800 M⁻¹ s⁻¹. With B6 the Km was 30.31 ± 1.67 µM, the kcat was 0.176 ± 0.004 s⁻¹ and the kcat/Km was 5800 M⁻¹ s⁻¹.

Same assay, conditions: apparent, air-saturated 20 mM HEPES pH 7.0, 25 °C, 0.1 mM FeSO4, 2 mM ascorbate, crystal with Co2+, 2.80 Å
With B7 the Km was 1.87 ± 0.37 µM, the kcat was 1.08 ± 0.053 s⁻¹ and the kcat/Km was 577000 M⁻¹ s⁻¹.
